# Test results: patent US6458926
# Biological target: GAL-RXR (yeast GAL4 DBD linked to the human RXRα LBD) (yeast; human) (UniProt P04386)
# Assay: cell-based or functional assay
# Sequence of T3R LBD (SV40 TAg NLS fused upstream of human T3Rβ LBD) (P10828 other isoform, or with tags, fused parts or gaps): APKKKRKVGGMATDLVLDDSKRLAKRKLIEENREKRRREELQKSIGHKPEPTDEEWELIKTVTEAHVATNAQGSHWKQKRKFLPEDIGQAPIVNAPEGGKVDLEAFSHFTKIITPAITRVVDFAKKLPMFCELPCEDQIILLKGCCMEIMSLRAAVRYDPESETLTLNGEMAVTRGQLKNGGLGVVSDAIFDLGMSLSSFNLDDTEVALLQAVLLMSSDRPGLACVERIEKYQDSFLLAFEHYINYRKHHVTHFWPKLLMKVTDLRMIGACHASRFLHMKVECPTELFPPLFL
substance,measurement,value
T3R LBD (SV40 TAg NLS fused upstream of human T3Rβ LBD) (from UniProt P10828 173-456),fold response to LG69,57 fold
